Reference: the supplement of paper PMC7877785
± gives the uncertainty stated by the source.

Test: self-splicing fitness, log relative to wild type (ln ratio); higher = more splicing; Tetrahymena group I intron in knt gene, E. coli kanamycin selection, DiMSum; sequences stand for … in CUCUCU…GGAGGGAAAAGUUAUCAGGCAUGCACCUGGUAGCUAGUCUUUAAACCAAUAGAUUGCAUCGGUUUAAAAGGCAAGACCGUCAAAUUGCGGGAAAGGGGUCAACAGCCGUUCAGUACCAAGUCUCAGGGGAAACUUUGAGAUGGCCUUGCAAAGGGUAUGGUAAUAAGCUGACGGACAUGGUCCUAACCACGCAGCCAAGUCCUAAGUCAACAGAUCUUCUGUUGAUAUGGAUGCAGUUCACAGACUAAAUGUCGGUCGGGGAAGAUGUAUUCUUCUCAUAAGAUAUAGUCGGACCUCUCCUUAAUGGGAGCUAGCGGAUGAAGUGAUGCAACACUGGAGCCGCUGGGAACUAAUUUGUAUGCGAAAGUAUAUUGAUUAGUUUUGGAGUACUCGUGGUCG
Procedure, shortened: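 DiMSum derived fitness as the error-weighted combination of fold changes across replicates, kanamycin versus no kanamycin, normalised to wild type. E. coli BL21(DE3) held the library, which randomised all eight P1ex-region intron nucleotides within the knt kanamycin-resistance gene on pET-22b(+). Six replicate transformations grew overnight at 37°C or 30°C on LB agar with or without 25 μg/mL kanamycin, also containing 100 μg/mL carbenicillin, 50 μM IPTG and 0.2% rhamnose, and pooled colonies were amplicon-sequenced on an Illumina HiSeq 2500.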

| Sequence | self-splicing fitness (ln) (30 °C) | self-splicing fitness (ln) (37 °C) |
| --- | --- | --- |
| AAUAAGCAAUAUUACGUAAG | -2.06 ± 0.072 | -0.567 ± 0.084 |
| CGCAAGCAAUAUUACGAUGA | -0.874 ± 0.064 | -0.853 ± 0.071 |
| CGCCAGCAAUAUUACGAGGG | -3.28 ± 0.17 | -1.83 ± 0.18 |
| UUUAAGCAAUAUUACGGGUC | -3.19 ± 0.35 | -2.25 ± 0.35 |
| CGGUAGCAAUAUUACGUUAC | -3.32 ± 0.36 | -2.09 ± 0.31 |
| CAACAGCAAUAUUACGCCCA | -0.825 ± 0.097 | -1.04 ± 0.1 |
| CUCUAGCAAUAUUACGGCUU | -3.45 ± 0.32 | -3.52 ± 0.42 |
| ACUUAGCAAUAUUACGUUUU | -3.39 ± 0.12 | -1.93 ± 0.1 |
| CCACAGCAAUAUUACGGAGC | -3.58 ± 0.14 | -2.99 ± 0.19 |
| CCGUAGCAAUAUUACGACAA | -3.54 ± 0.27 | -3.19 ± 0.33 |
| GAGUAGCAAUAUUACGGGGG | – | -3.08 ± 0.35 |
| AGACAGCAAUAUUACGGAGC | -3.94 ± 0.17 | -2.93 ± 0.24 |
| CGGAAGCAAUAUUACGACCA | 0.623 ± 0.2 | -0.13 ± 0.27 |
| ACAAAGCAAUAUUACGUUGA | -1.49 ± 0.079 | -1.24 ± 0.089 |
| UAUUAGCAAUAUUACGCCUC | – | -3.1 ± 0.48 |
| GAUCAGCAAUAUUACGUCCU | -0.874 ± 0.1 | -0.0507 ± 0.092 |
| GCUCAGCAAUAUUACGCUAA | -2.11 ± 0.11 | -0.785 ± 0.11 |
| ACAGAGCAAUAUUACGCAGA | – | -2.25 ± 0.33 |
| GUUGAGCAAUAUUACGUCGU | -3.25 ± 0.39 | – |
| CACGAGCAAUAUUACGUUGC | -3.91 ± 0.24 | -2.14 ± 0.21 |
| UCACAGCAAUAUUACGUGCA | -0.403 ± 0.067 | 0.0083 ± 0.085 |
| GACAAGCAAUAUUACGAAUG | -2.42 ± 0.1 | -0.875 ± 0.098 |
| UAUUAGCAAUAUUACGGAAA | -1.81 ± 0.48 | -1.98 ± 0.46 |
| GCAAAGCAAUAUUACGGCCU | -0.867 ± 0.12 | -0.967 ± 0.16 |
| ACGAAGCAAUAUUACGUAGU | -3.12 ± 0.12 | -2.13 ± 0.17 |

| Sequence | self-splicing fitness (ln) (30 °C) | self-splicing fitness (ln) (37 °C) |
| --- | --- | --- |
| CGCAAGCAAUAUUACGUCGA | -2.24 ± 0.16 | -1.67 ± 0.14 |
| AUUUAGCAAUAUUACGCGAU | -3.22 ± 0.33 | -2.49 ± 0.48 |
| CGCCAGCAAUAUUACGUAAG | -0.207 ± 0.063 | 0.217 ± 0.074 |
| CGCAAGCAAUAUUACGGGGA | -3.1 ± 0.2 | -2.69 ± 0.23 |
| CGAUAGCAAUAUUACGGGAA | -2.74 ± 0.32 | -2.33 ± 0.25 |
| AGCGAGCAAUAUUACGUUUG | -3.44 ± 0.2 | -3.64 ± 0.31 |
| AGUGAGCAAUAUUACGGGGU | -4.06 ± 0.25 | -2.67 ± 0.21 |
| CUCAAGCAAUAUUACGACGG | -0.942 ± 0.1 | -1.05 ± 0.13 |
| CCAAAGCAAUAUUACGGUCA | -3.54 ± 0.35 | -1.78 ± 0.25 |
| AAGUAGCAAUAUUACGUACG | -1.29 ± 0.088 | -0.0022 ± 0.11 |
| GCACAGCAAUAUUACGAACU | -0.419 ± 0.056 | -0.167 ± 0.072 |
| UCUGAGCAAUAUUACGACUG | -3.15 ± 0.27 | -2.26 ± 0.28 |
| CGACAGCAAUAUUACGAGAA | – | -2.41 ± 0.23 |
| GCCAAGCAAUAUUACGAGGC | -2.66 ± 0.16 | -1.93 ± 0.21 |
| GCAAAGCAAUAUUACGCACG | -1.83 ± 0.12 | -0.806 ± 0.11 |
| ACUAAGCAAUAUUACGUUAA | -2.77 ± 0.14 | -2.7 ± 0.18 |
| CAAGAGCAAUAUUACGGCAG | -1.54 ± 0.091 | -0.926 ± 0.13 |
| UGGCAGCAAUAUUACGACCU | 0.0278 ± 0.12 | 0.0625 ± 0.12 |
| UUGUAGCAAUAUUACGCACU | 0.662 ± 0.21 | 0.253 ± 0.19 |
| GUCUAGCAAUAUUACGACGG | -3.01 ± 0.29 | -2.45 ± 0.27 |
| AAAAAGCAAUAUUACGCGCU | -0.379 ± 0.076 | -0.358 ± 0.091 |
| UAUAAGCAAUAUUACGGUAU | -3.16 ± 0.16 | -2.25 ± 0.17 |
| UGAGAGCAAUAUUACGCUAU | -3.09 ± 0.35 | -1.48 ± 0.46 |
| CUUGAGCAAUAUUACGCAUG | -2.7 ± 0.21 | -1.3 ± 0.44 |
| AAUGAGCAAUAUUACGCGCC | -3.19 ± 0.28 | -2.73 ± 0.44 |

| Sequence | self-splicing fitness (ln) (30 °C) | self-splicing fitness (ln) (37 °C) |
| --- | --- | --- |
| CGAGAGCAAUAUUACGAGCG | -0.966 ± 0.11 | -1.72 ± 0.18 |
| CUAAAGCAAUAUUACGGACA | -3.1 ± 0.17 | -2.34 ± 0.21 |
| GUAUAGCAAUAUUACGCUCU | -1.76 ± 0.13 | -1.23 ± 0.15 |
| GGUGAGCAAUAUUACGUAAG | -3.05 ± 0.45 | -2.22 ± 0.28 |
| ACAUAGCAAUAUUACGGCGC | -1.1 ± 0.083 | -0.521 ± 0.11 |
| CAUGAGCAAUAUUACGGUGG | -1.49 ± 0.078 | -0.665 ± 0.088 |
| GCGUAGCAAUAUUACGUGGC | -3.48 ± 0.23 | -2.75 ± 0.31 |
| AAUUAGCAAUAUUACGCUAU | -2.55 ± 0.26 | -1.97 ± 0.31 |
| UGCGAGCAAUAUUACGUUCA | -1.45 ± 0.11 | -0.32 ± 0.15 |
| GGCGAGCAAUAUUACGUUGA | -1.56 ± 0.13 | -2.18 ± 0.15 |
| GUUGAGCAAUAUUACGCACC | -2.94 ± 0.16 | -1.67 ± 0.14 |
| AACGAGCAAUAUUACGUCGA | – | -2.06 ± 0.21 |
| GAGCAGCAAUAUUACGGCCG | -1.05 ± 0.17 | -0.59 ± 0.27 |
| GGAAAGCAAUAUUACGGCCU | -1.71 ± 0.15 | -0.809 ± 0.21 |
| CAACAGCAAUAUUACGUUCU | -1.32 ± 0.073 | -0.92 ± 0.094 |
| GCUGAGCAAUAUUACGUGGU | -3.63 ± 0.32 | -2.22 ± 0.4 |
| CUAUAGCAAUAUUACGGGAA | -2.55 ± 0.32 | -2.26 ± 0.31 |
| UCUCAGCAAUAUUACGGUUG | -3.46 ± 0.17 | -2.41 ± 0.21 |
| CUUCAGCAAUAUUACGGGUG | -0.356 ± 0.038 | 0.33 ± 0.058 |
| ACCGAGCAAUAUUACGCGAC | – | -2.66 ± 0.44 |
| CCCAAGCAAUAUUACGGUUU | -3.72 ± 0.12 | -2.92 ± 0.11 |
| GAUAAGCAAUAUUACGUAGG | -3.01 ± 0.13 | -1.86 ± 0.15 |
| AAGCAGCAAUAUUACGAGUG | -2.99 ± 0.1 | -2.69 ± 0.11 |
| AGAAAGCAAUAUUACGGGGA | -3.05 ± 0.17 | -2.07 ± 0.17 |
| GGGUAGCAAUAUUACGCCUG | -1.42 ± 0.12 | -0.219 ± 0.14 |

| Sequence | self-splicing fitness (ln) (30 °C) | self-splicing fitness (ln) (37 °C) |
| --- | --- | --- |
| CUUCAGCAAUAUUACGGGGG | -3.72 ± 0.21 | -2.23 ± 0.26 |
| AUUGAGCAAUAUUACGGGAA | -3.22 ± 0.37 | -3.86 ± 0.46 |
| CAAGAGCAAUAUUACGAUAU | -3.3 ± 0.29 | -2.7 ± 0.3 |
| GAGCAGCAAUAUUACGAAAA | -2.68 ± 0.39 | – |
| UGUCAGCAAUAUUACGAUCA | -0.048 ± 0.086 | -0.0719 ± 0.11 |
| GGCGAGCAAUAUUACGAUCA | -1.18 ± 0.17 | -0.735 ± 0.18 |
| CUAUAGCAAUAUUACGUCGA | -2.18 ± 0.22 | -2.6 ± 0.38 |
| CAAUAGCAAUAUUACGUAUG | -1.66 ± 0.12 | -1.7 ± 0.12 |
| CUAAAGCAAUAUUACGAAAG | 0.0922 ± 0.092 | 0.21 ± 0.12 |
| AUCAAGCAAUAUUACGUGCC | -1.51 ± 0.14 | -0.426 ± 0.16 |
| CGCUAGCAAUAUUACGGGUC | -3.08 ± 0.21 | -2.9 ± 0.34 |
| UCCCAGCAAUAUUACGGUUC | -2.43 ± 0.11 | -1.8 ± 0.14 |
| AUGUAGCAAUAUUACGGGAU | -1.9 ± 0.12 | -1.33 ± 0.2 |
| GUGCAGCAAUAUUACGCAUG | -3.11 ± 0.29 | -0.586 ± 0.16 |
| AGGGAGCAAUAUUACGAAAG | -1.91 ± 0.14 | -2.14 ± 0.24 |
| ACAUAGCAAUAUUACGCUUU | -2.82 ± 0.16 | -2.53 ± 0.32 |
| ACCGAGCAAUAUUACGGUGG | -2.91 ± 0.13 | -3.14 ± 0.29 |
| AUAAAGCAAUAUUACGGUUG | -1.68 ± 0.1 | -1.36 ± 0.15 |
| UCACAGCAAUAUUACGUUCG | -1.07 ± 0.061 | -0.209 ± 0.09 |
| AAACAGCAAUAUUACGUUGC | -3.24 ± 0.11 | -3.26 ± 0.18 |
| CGCCAGCAAUAUUACGAGGC | -2.66 ± 0.2 | -3.07 ± 0.32 |
| UCAGAGCAAUAUUACGCCCG | -2 ± 0.47 | – |
| UCGCAGCAAUAUUACGACAC | -1.67 ± 0.26 | -2.78 ± 0.41 |
